Data on one molecule can be found in paper PMC2172211 (The Journal of Cell Biology, 2004).

For this test, the target named is T1, GST-Patj (Drosophila, UniProt Q9NB04 1-871).
T1 sequence (looked up): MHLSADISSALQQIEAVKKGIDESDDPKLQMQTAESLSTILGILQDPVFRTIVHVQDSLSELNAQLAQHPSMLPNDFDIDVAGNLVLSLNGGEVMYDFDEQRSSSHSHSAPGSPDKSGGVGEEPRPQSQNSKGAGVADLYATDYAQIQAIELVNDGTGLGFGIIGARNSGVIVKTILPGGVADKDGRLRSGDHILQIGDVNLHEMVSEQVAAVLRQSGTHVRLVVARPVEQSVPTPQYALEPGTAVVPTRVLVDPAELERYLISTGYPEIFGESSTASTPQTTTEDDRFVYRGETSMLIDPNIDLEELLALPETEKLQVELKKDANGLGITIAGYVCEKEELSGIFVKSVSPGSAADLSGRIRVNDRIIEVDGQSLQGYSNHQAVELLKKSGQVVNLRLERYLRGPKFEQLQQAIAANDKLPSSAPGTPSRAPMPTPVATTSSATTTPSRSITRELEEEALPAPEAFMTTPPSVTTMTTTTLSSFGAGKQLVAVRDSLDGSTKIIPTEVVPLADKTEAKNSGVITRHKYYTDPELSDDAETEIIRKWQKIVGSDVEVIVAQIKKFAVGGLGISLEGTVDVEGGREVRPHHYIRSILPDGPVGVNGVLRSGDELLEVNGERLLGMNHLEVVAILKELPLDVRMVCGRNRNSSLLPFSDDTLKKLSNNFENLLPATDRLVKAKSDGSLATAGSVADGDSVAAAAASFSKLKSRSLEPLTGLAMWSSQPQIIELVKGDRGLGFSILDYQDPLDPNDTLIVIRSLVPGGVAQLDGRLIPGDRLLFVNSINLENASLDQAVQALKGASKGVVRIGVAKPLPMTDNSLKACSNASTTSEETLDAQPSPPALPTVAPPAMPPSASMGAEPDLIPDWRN
The test can be described thus: pull-down.

B1: His-tagged DaPKC (enzyme, Drosophila, UniProt A1Z9X0 1-606, looked up)
chain: MQKMPSQILNDGSSVSLNSASMNMANTPNSITVKTAYNGQIIITTINKNISYEELCYEIRNICRFPLDQPFTIKWVDEENDPCTISTKMELDEAIRLYEMNFDSQLVIHVFPNVPQAPGLSCDGEDRSIYRRGARRWRKLYRVNGHIFQAKRFNRRAFCAYCQDRIWGLGRQGFKCIQCKLLVHKKCHKLVQKHCTDQPEPLVKERAEESSDPIPVPLPPLPYEAMSGGAEACETHDHAHIVAPPPPEDPLEPGTQRQYSLNDFELIRVIGRGSYAKVLMVELRRTRRIYAMKVIKKALVTDDEDIDWVQTEKHVFETASNHPFLVGLHSCFQTPSRLFFVIEFVRGGDLMYHMQRQRRLPEEHARFYAAEISLALNFLHEKGIIYRDLKLDNVLLDHEGHIKLTDYGMCKEGIRPGDTTSTFCGTPNYIAPEILRGEDYGFSVDWWALGVLLYEMLAGRSPFDLAGASENPDQNTEDYLFQVILEKTIRIPRSLSVRAASVLKGFLNKNPADRLGCHRESAFMDIVSHPFFKNMDWELLERKQVTPPFKPRLDSDRDLANFPPEFTGEAVQLTPDDDHVIDNIDQSEFEGFEYVNPLLMSLEDCV
As to B1, the binding result is recorded as “binds”.
